This passage reports Kd results from publication PMC9170159 (Proceedings of the National Academy of Sciences of the …, 2022).

Values joined by “and” are separate entries in the source; they are usually repeats but may differ in a detail not shown here. Equal entries are not always repeated.

Assay [1] concerns the target T1, SARS-CoV-2 (Wuhan-Hu-1) spike receptor-binding domain, His-tagged (SARS-CoV-2, UniProt P0DTC2 319-541). Description: BLI. To be noted: both partners purified.
Assay [2] addresses T1, SARS-CoV-2 (Wuhan-Hu-1) spike …. Briefly: BLI. To be noted: both partners purified. The source holds these as a separate data set.

By Kd is commonly meant a measure of binding affinity in units of concentration. Read a low Kd as a tighter complex.

B1: NCI-CoV-8A2 VHH-hFc fusion protein (Fc fusion)
VHH: AVQLVDSGGGSVQAGGSLRLSCAASGYTYSICTMGWYRQAPGEGLEWVSGINADGSNTHYTDSVKGRFTISRDNAKKTLYLQMNSLKPEDTAIYYCAAHGTYDKYAPCGGFAGTYTYWGQGTQVTVSS
notes: also called 8A2 VHH-Fc; source: Expi293 cells, transfected, purified (protein A column)
For B1, the Kd is 0.26 nM in assay [1]; 0.26 nM and 0.13 nM in assay [2].

B2: NCI-CoV-7A3 VHH-hFc fusion protein (Fc fusion)
VHH: QVQLVESGGGSVQPGGSLRLSCVVSGYTSSSRYMGWFRQVPGKGLEWVSGIKRDGTNTYYADSVKGRFTISQDNAKNTVYLQMNSLKPEDTAMYYCAAGSWYNQWGYSMDYWGKGTQVTVSS
notes: also called 7A3 VHH-Fc; source: Expi293 cells, transfected, purified (protein A column)
Turning to B2, the Kd is 0.2 nM in assay [1]; 0.19 nM and 0.2 nM in assay [2].

B3: 8A4 VHH-hFc fusion protein (Fc fusion)
VHH: EVQLVESGGGLVQPGESLRLSCEASGFTFSSVYMSWVRQAPGKGLEWISTIHPAGGSTYYADSMKDRFTISRDNAKNTLYLQMNSLKSEDTALYYCIIEALSGYRGPGTQVTVSS
notes: also called 8A4 VHH-Fc; source: Expi293 cells, transfected, purified (protein A column)
On to B3, for which the Kd in assay [1] is 0.16 nM; in assay [2], 0.14 nM and 0.18 nM.

B4: 1H6 VHH-hFc fusion protein (Fc fusion)
VHH: AVQLVDSGGGSVQAGGSLNLSCVASGTTLRNGCMAWFRQVPGKEREVVAIIIRATSYTDYADSVKGRFTISQDNAKNTVYLQMKSLTPEDTATYYCAATLYRVNCAKREFDKWGQGTQVTVSS
notes: also called 1H6 VHH-Fc; source: Expi293 cells, transfected, purified (protein A column)
In the case of B4, in assay [2], the Kd is 37 nM and 42 nM.
